From patent US10385327B2, “Enhanced E. coli for the production of fatty acids and method of producing the same” (University of Puerto Rico, priority 2012, dated 2019)

Substrate: C/C=C/C(=O)SCCNC(=O)CCNC(=O)[C@H](O)C(C)(C)COP(=O)(O)OP(=O)(O)OC[C@H]1O[C@@H](n2cnc3c(N)ncnc32)[C@H](O)[C@@H]1OP(=O)(O)O
Assay: Kinetic assay of dehydratase activity: hydration of crotonyl-CoA monitored at 235 nm, fit to Michaelis-Menten equation
Type: biochemical, Photobacterium profundum
Conditions: other: crotonyl-CoA, hydration reaction, substrate 0-600 μM, 25 mM Tris, 150 mM NaCl, 10% glycerol, pH 8.0
Description: For the cloning of fragments into pET200TOPO SEQ.ID15, the amplified DNA was gel purified using a Gel Extraction Kit and incubated with pET200TOPO. The resulting clones were selected in LB-agar containing kanamycin (100 μg/mL). All resistant clones were introduced into E. coli strain SEQ.ID16 BL21-DE3-Codon Plus-RIL and grown in liquid LB at 37° C. until the OD600=0.4 at which time the temperature was decreased to 22° C.° until the OD600=0.6 at which time protein expression was induced with 1 mM IPTG. […]
Dehydratase activity was measured in a hydration assay by using Crotonyl-CoA and Crotonyl-NAC as substrates. […] The values for the absorbance slope (given in mAU/min) were converted to units of μmole of product per minute by using the following equation: μmole of product/min=[Slope/ε×b]×Voltotal (Eq1)
in which the slope is given by the instrument in units of milliabsorbance (mAU) per minute, b is the path length measured to be 0.89 cm for a Voltotal=200 μl in our 96-well plates. The ε is the molar extinction coefficient resulting from the loss of a double bond as defined by the difference in absorbance between crotonyl-CoA and β-hydroxybutyryl-CoA at a particular wavelength. The extinction coefficient was calculated to be ε=969.9 M^−1 cm^−1 for the reaction monitored at 260 nm and ε=790.7 M^−1 cm^−1 for the reaction monitored at 235 nm. […]

B1: DH1-DH2-UMA (His-tagged dehydratase tetradomain fragment, I1096-N-Term, of pfaC PUFA synthase from Photobacterium profundum; pfaC SEQ.ID17, GenBank AF409100.1; … (protein)
chain: IRKPCIWDYEDLVEYAEGDIANVFGPDYAVIDNYSRRVRLPTTDYLLVSRVTKLDATMLEYKPSTMTTEYDIPVDAPYLVDGQIPWAVAVESGQCDLMLISYLGIDFENKGERVYRLLDCTLTFLGDLPRGGDTLRYDISINNFARNGDTLLFFFSYECFVGDKMVLKMDNGCAGFFTDEELSDGKGVIRTEDEIKSRNLAVKQRFNPLLHCQKTQFDYQTLHNLLDANIAGCFGESHISDRHQPSLCFSSDKFMMIEQISHVDPQGGTWGLGLIEGHKQLEADHWYFPCHFKDDSVMAGSLMAEGCGQLLQFFMMYLGMHTQVENGRFQPLENAPQQVRCRGQVLPQSAVLTYRMEVTEIGLSPRPYAKANIDILLDGKVVVDFQNLGVMIKEESECTRYLGSSDFDSASLASSSYVAESAPAQADVITPVEAPISQQASANAPLMAQIPDLNTAPNKGVIPLQHIEAPIVPDYQNRTPDTVPFTPYHMFEFATGDIEKCFGPDFSIYRGMIPPRTPCGDLQLTTRVIEVNGTRGDFKTPSSCIAEYEVPENAWYFDENSHSSLMPYSVLMEISLQPNGFISGYMGTTLGFPGLELFFRNLDGSGKMLRNVDLRGKTIVNDSRLLSTVMMGTNIVQSFSFELSTDGVPFYEGTAVFGYFKGAALKDQLGLDNGQVTYPWHVNNNRTPDVSINLLDKESRYFNAPLSATGEAQPHYQLAGGRLNFIDKVDITSDGGKAGLGYLYAERTIDPSDWFFQFHFHQDPVMPGSLGVEAIIELMQTYALNKDLGAGFRSPKFGQIQSEVKWKYRGQINPLNKQMSLDVHITAIKDEDGKRIIVGDANLSKDGLRIYEVKDIAICIEEA
In the case of B1, the Km is reported as 156 µM and the Vmax is reported as 0.0001 μmol product/min.
